Here are results for 3 molecules from publication PMC12781872, “Differential association of primary and alternative σ factors with RNA polymerase of Mycobacterium tuberculosis during transcription elongation” (Nucleic Acids Research, 2026).

In this experiment the target is T1, Mycobacterium tuberculosis RNA polymerase core (α2ββ'ω), wildtype (Mycobacterium tuberculosis, UniProt P9WGZ1;P9WGY9;P9WGY7;P9WGY5).
T1 construct: also called Mtb RNAP core; unlabelled RNAP core; copies: 2 + + +
Description: native gel or EMSA. To be noted: both partners purified.

T1 sequence (P9WGZ1 whole entry, chain 1 of 4): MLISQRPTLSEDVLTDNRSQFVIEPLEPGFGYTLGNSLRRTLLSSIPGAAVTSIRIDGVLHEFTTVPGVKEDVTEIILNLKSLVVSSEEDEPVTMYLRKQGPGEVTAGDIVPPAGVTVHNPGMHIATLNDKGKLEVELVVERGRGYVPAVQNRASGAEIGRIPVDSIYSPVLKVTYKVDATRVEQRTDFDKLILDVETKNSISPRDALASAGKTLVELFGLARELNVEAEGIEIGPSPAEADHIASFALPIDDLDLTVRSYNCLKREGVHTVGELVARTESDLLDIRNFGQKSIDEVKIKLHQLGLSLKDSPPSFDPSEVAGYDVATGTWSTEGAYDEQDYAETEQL
T1 sequence (P9WGY9 whole entry, chain 2 of 4): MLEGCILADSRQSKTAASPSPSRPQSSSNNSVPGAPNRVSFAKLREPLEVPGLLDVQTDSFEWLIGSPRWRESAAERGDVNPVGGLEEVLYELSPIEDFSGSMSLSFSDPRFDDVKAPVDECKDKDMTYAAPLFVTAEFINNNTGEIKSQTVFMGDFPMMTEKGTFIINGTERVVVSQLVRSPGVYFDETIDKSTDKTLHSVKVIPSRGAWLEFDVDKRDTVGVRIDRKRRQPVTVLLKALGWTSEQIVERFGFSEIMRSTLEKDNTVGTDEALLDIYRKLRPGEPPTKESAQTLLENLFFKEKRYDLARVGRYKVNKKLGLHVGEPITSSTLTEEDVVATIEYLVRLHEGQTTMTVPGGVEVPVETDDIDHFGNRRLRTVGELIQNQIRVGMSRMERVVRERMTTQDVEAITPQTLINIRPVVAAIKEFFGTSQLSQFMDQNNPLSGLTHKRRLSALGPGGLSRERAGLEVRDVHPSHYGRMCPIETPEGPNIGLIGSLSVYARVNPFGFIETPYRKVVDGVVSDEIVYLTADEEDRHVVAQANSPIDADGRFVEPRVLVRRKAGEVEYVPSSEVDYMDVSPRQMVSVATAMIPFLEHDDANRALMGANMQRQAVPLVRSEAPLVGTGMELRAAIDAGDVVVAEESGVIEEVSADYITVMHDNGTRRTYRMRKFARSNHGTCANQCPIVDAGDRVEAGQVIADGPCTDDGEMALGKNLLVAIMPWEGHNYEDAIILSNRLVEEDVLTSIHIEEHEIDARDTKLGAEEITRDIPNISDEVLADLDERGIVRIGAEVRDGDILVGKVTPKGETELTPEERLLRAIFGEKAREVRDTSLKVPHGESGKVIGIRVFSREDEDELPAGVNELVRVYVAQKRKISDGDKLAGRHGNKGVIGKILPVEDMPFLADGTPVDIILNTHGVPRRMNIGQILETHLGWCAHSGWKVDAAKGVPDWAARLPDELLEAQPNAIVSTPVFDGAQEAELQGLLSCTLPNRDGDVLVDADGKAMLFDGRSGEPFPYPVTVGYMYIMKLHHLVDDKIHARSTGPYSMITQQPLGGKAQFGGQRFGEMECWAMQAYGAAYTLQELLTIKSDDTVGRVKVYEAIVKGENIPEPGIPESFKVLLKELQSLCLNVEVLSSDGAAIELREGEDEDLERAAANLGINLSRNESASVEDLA
T1 sequence (P9WGY7 whole entry, chain 3 of 4): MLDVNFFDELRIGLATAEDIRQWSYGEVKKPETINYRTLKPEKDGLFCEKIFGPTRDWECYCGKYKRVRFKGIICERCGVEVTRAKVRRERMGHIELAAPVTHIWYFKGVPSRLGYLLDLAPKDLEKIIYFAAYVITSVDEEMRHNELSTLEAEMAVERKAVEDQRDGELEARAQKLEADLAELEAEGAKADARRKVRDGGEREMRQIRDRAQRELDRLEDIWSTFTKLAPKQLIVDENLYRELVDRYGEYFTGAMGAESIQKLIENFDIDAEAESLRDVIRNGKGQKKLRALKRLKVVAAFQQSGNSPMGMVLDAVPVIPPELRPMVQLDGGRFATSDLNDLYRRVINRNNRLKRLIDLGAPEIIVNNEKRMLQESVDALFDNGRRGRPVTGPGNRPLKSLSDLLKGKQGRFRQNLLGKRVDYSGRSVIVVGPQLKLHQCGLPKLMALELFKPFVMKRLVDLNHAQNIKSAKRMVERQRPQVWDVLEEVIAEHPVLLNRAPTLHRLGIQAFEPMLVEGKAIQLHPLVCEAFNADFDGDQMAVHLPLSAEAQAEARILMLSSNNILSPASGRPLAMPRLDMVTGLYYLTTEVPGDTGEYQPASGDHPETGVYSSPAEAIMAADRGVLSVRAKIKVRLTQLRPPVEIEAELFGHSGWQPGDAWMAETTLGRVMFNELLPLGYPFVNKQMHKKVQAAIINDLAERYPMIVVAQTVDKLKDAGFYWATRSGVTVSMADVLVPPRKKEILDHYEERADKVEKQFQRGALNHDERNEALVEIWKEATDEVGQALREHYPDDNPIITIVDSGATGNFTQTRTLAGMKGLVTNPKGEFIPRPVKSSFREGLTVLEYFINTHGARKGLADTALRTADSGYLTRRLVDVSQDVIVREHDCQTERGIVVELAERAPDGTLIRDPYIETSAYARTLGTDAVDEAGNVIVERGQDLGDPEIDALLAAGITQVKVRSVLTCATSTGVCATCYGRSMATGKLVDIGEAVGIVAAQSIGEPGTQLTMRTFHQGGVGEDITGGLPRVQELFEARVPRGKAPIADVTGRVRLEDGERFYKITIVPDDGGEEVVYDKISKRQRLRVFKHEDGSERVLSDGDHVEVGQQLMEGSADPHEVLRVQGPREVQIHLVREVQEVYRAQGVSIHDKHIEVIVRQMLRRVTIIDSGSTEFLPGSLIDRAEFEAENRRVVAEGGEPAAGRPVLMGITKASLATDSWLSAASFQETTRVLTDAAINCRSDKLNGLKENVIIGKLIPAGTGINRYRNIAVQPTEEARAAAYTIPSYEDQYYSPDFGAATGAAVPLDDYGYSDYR
T1 sequence (P9WGY5 whole entry, chain 4 of 4): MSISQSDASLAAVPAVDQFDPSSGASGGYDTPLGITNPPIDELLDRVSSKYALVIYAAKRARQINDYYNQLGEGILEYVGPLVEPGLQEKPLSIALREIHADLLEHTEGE

B1: TMR-labelled Mtb σ^E used in EMSA and anisotropy assays (natural protein)
chain: MELLGGPRVGNTESQLCVADGDDLPTYCSANSEDLNITTITTLSPTSMSHPQQVRDDQWVEPSDQLQGTAVFDATGDKATMPSWDELVRQHADRVYRLAYRLSGNQHDAEDLTQETFIRVFRSVQNYQPGTFEGWLHRITTNLFLDMVRRRARIRMEALPEDYDRVPADEPNPEQIYHDARLGPDLQAALASLPPEFRAAVVLCDIEGLSYEEIGATLGVKLGTVRSRIHRGRQALRDYLAAHPEHGECAVHVNPVR
notes: also called TMR-labelled σ^E; labelled σ^E
As to B1, the “fractional occupancy relative to RPo, at RPitc (sigB)” value was ~93%; the “fractional occupancy relative to RPo, at TEC+15 (sigB)” value is 55%; the “fractional occupancy relative to RPo, at TEC+23 (sigB)” value turned out to be 47%; the “fractional occupancy relative to RPo, at TEC+27 (sigB)” value came out at 45%. For the same molecule, the “fractional occupancy relative to RPo, at TEC+84 (sigB)” value is 38%.

B2: TMR-labelled Mtb σ^F (wild type, labelled at the natural cysteine, residue 47 of σ2) (natural protein)
chain: MTARAAGGSASRANEYADVPEMFRELVGLPAGSPEFQRHRDKIVQRCLPLADHIARRFEGRGEPRDDLIQVARVGLVNAAVRFDVKTGSDFVSFAVPTIMGEVRRHFRDNSWSVKVPRRLKELHLRLGTATADLSQRLGRAPSASELAAELGMDRAEVIEGLLAGSSYHTLSIDSGGGSDDDARAITDTLGDVDAGLDQIENREVLRPLLEALPERERTVLVLRFFDSMTQTQIAERVGISQMHVSRLLAKSLARLRDQLE
notes: also called TMR-labelled σ^F; σ^F labelled with TMR at region 2
In the case of B2, the “fractional occupancy relative to RPo, at RPitc (usfXP1)” value is ~96%; the “fractional occupancy relative to RPo, at TEC+17 (usfXP1)” value is 89%; the “fractional occupancy relative to RPo, at TEC+23 (usfXP1)” value turned out to be 87%; the “fractional occupancy relative to RPo, at TEC+28 (usfXP1)” value worked out at 83%. Also, the “fractional occupancy relative to RPo, at TEC+64 (usfXP1)” value is 82%.

B3: Alexafluor-488 labelled Mtb σ^A (natural protein)
chain: MAATKASTATDEPVKRTATKSPAASASGAKTGAKRTAAKSASGSPPAKRATKPAARSVKPASAPQDTTTSTIPKRKTRAAAKSAAAKAPSARGHATKPRAPKDAQHEAATDPEDALDSVEELDAEPDLDVEPGEDLDLDAADLNLDDLEDDVAPDADDDLDSGDDEDHEDLEAEAAVAPGQTADDDEEIAEPTEKDKASGDFVWDEDESEALRQARKDAELTASADSVRAYLKQIGKVALLNAEEEVELAKRIEAGLYATQLMTELSERGEKLPAAQRRDMMWICRDGDRAKNHLLEANLRLVVSLAKRYTGRGMAFLDLIQEGNLGLIRAVEKFDYTKGYKFSTYATWWIRQAITRAMADQARTIRIPVHMVEVINKLGRIQRELLQDLGREPTPEELAKEMDITPEKVLEIQQYAREPISLDQTIGDEGDSQLGDFIEDSEAVVAVDAVSFTLLQDQLQSVLDTLSEREAGVVRLRFGLTDGQPRTLDEIGQVYGVTRERIRQIESKTMSKLRHPSRSQVLRDYLD
notes: also called AF488 labelled σ^A; σ^A-488
Turning to B3, the “fractional occupancy relative to RPo, at RPitc (sinP3)” value is ~95%; the “fractional occupancy relative to RPo, at TEC+16 (sinP3)” value is 77%; the “fractional occupancy relative to RPo, at TEC+23 (sinP3)” value stood at 72%; the “fractional occupancy relative to RPo, at TEC+29 (sinP3)” value worked out at 63%. Also, the “fractional occupancy relative to RPo, at TEC+59 (sinP3)” value came out at 49%.
